Source: the supplement of paper PMC10598134
± gives the standard deviation.

Test: collision cross section of modified peptide (TIMS, N2, iRT-aligned); higher = larger / more extended gas-phase ion
Summary of the method: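 On a timsTOF Pro/HT (dda-PASEF, nitrogen, ~2.4 mbar), synthetic peptide pools were analysed after a 120-min nanoflow C18 separation at 60 °C and identified in MaxQuant. Three reference ions served for 1/K0 calibration, with run-wise alignment to the median iRT peptide deviation. Collision cross section comes from the Mason-Schamp equation, using the most abundant feature per charge state averaged over 1–3 technical replicates.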

[1] = charge state: 2, modification: Methyl (R)
[2] = charge state: 3, modification: Methyl (R)
[3] = charge state: 2, modification: Propionyl
[4] = charge state: 2, modification: HexNAc (ST)
[5] = charge state: 2, modification: Succinyl
[6] = charge state: 2, modification: Hydroxyproline
[7] = charge state: 2, modification: Nitro (Y)
[8] = charge state: 2, modification: Trimethyl (K)
[9] = charge state: 3, modification: Trimethyl (K)
[10] = charge state: 2, modification: GlyGly (K)
[11] = charge state: 3, modification: GlyGly (K)
[12] = charge state: 2, modification: Citrullination (R)
[13] = charge state: 3, modification: Citrullination (R)
[14] = charge state: 2, modification: Methyl (K)
[15] = charge state: 3, modification: Methyl (K)
[16] = charge state: 2, modification: Acetyl (K)
[17] = charge state: 3, modification: Acetyl (K)
[18] = charge state: 2, modification: Phospho (Y)
[19] = charge state: 2, modification: Butyryl
[20] = charge state: 2, modification: Formyl
[21] = charge state: 2, modification: Glutarylation
[22] = charge state: 2, modification: hydroxyisobutyryl
[23] = charge state: 3, modification: hydroxyisobutyryl
[24] = charge state: 3, modification: Dimethyl (K)
[25] = charge state: 3, modification: Succinyl
[26] = charge state: 2, modification: Crotonyl

AAHGRGALAEAAR [_AAHGR(Methyl (R))GALAEAAR_]
collision cross section [1]: 401.51 ± 8.3 Å² | collision cross section [2]: 469.45 ± 1.5 Å²

SLEEEGAAHSGKR [_SLEEEGAAHSGK(Propionyl)R_]
collision cross section [3]: 416.58 ± 0.64 Å² | collision cross section (charge state: 3, modification: Propionyl): 480.52 ± 0.66 Å²

SYISSQTNDTHK [_S(HexNAc (ST))YISSQTNDTHK_]
collision cross section [4]: 405.45 ± 0.67 Å²

LDEKENLSAK [_LDEK(Succinyl)ENLSAK_]
collision cross section [5]: 369.34 ± 0.74 Å²

GPPGPPGK [_GPPGP(Hydroxyproline)PGK_]
collision cross section [6]: 274.06 ± 0.78 Å²

CYYGSDTAGR [_CY(Nitro (Y))YGSDTAGR_]
collision cross section [7]: 352.25 ± 0.8 Å²

FLQEFYQDDELGKK [_FLQEFYQDDELGK(Trimethyl (K))K_]
collision cross section [8]: 464.1 ± 0.55 Å² | collision cross section [9]: 508.12 ± 1.8 Å²

VNIGQGSHPQKVK [_VNIGQGSHPQK(GlyGly (K))VK_]
collision cross section [10]: 422.43 ± 1.1 Å² | collision cross section [11]: 490.21 ± 0.72 Å²

VTPHPSPRGSPLPTPK [_VTPHPSPR(Citrullination (R))GSPLPTPK_]
collision cross section [12]: 409.96 ± 0.55 Å² | collision cross section [13]: 504.78 ± 11 Å²

GRGGAESHTFK [_GR(Methyl (R))GGAESHTFK_]
collision cross section [1]: 352.3 ± 2.4 Å² | collision cross section [2]: 441.34 ± 2.6 Å²

LDEKENLSAK [_LDEK(Propionyl)ENLSAK_]
collision cross section [3]: 369.99 ± 0.94 Å²

LGVATVAKGVCGACK [_LGVATVAK(Methyl (K))GVCGACK_]
collision cross section [14]: 433.3 ± 0.37 Å² | collision cross section [15]: 457.05 ± 3.9 Å²

GFALVGVGSEASSKK [_GFALVGVGSEASSK(Acetyl (K))K_]
collision cross section [16]: 429.07 ± 17 Å² | collision cross section [17]: 499.93 ± 0.98 Å²

LTSLNVKYNNDK [_LTSLNVK(Methyl (K))YNNDK_]
collision cross section [14]: 408.99 ± 1.4 Å² | collision cross section [15]: 486.12 ± 3.3 Å²

SFSASGAQIVSR [_SFSASGAQIVS(HexNAc (ST))R_]
collision cross section [4]: 387.57 ± 0.63 Å²

LDEKENLSAK [_LDEK(Methyl (K))ENLSAK_]
collision cross section [14]: 366.29 ± 0.55 Å²

ASNAAVKLAESK [_ASNAAVK(Trimethyl (K))LAESK_]
collision cross section [8]: 392.01 ± 0.62 Å² | collision cross section [9]: 456.46 ± 2.4 Å²

YSRGAGLGFSTAPNK [_YSR(Citrullination (R))GAGLGFSTAPNK_]
collision cross section [12]: 397.83 ± 0.22 Å²

LQIASDENYK [_LQIASDENY(Phospho (Y))K_]
collision cross section [18]: 374.64 ± 0.77 Å²

SITHSTVGSKGEK [_SITHSTVGSK(Butyryl)GEK_]
collision cross section [19]: 396.1 ± 0.79 Å² | collision cross section (charge state: 3, modification: Butyryl): 440.88 ± 2.8 Å²

APPIDRSILPTAPR [_APPIDR(Citrullination (R))SILPTAPR_]
collision cross section [12]: 410.86 ± 0.21 Å² | collision cross section [13]: 480.52 ± 0.41 Å²

DTGEKLTVAENEAETK [_DTGEK(GlyGly (K))LTVAENEAETK_]
collision cross section [10]: 443.91 ± 1.6 Å² | collision cross section [11]: 490.28 ± 1.9 Å²

IPQEKCILQTDVK [_IPQEK(Formyl)CILQTDVK_]
collision cross section [20]: 427.41 Å²

VLPSITTEILK [_VLPS(HexNAc (ST))ITTEILK_]
collision cross section [4]: 396.57 Å²

ASEALLKQLK [_ASEALLK(Propionyl)QLK_]
collision cross section [3]: 375.9 ± 0.65 Å²

SKLLFSNTAAQK [_SK(Propionyl)LLFSNTAAQK_]
collision cross section [3]: 398.2 ± 1.4 Å²

SDDESSQKDIK [_SDDESSQK(Acetyl (K))DIK_]
collision cross section [16]: 374.03 ± 0.38 Å²

LQEKVESAQSEQK [_LQEK(Acetyl (K))VESAQSEQK_]
collision cross section [16]: 412.85 ± 1.8 Å² | collision cross section [17]: 502.13 ± 0.084 Å²

PGGEGPQCEKTTDVK [_PGGEGPQCEK(Acetyl (K))TTDVK_]
collision cross section [16]: 415.43 ± 2 Å²

DTPTSAGPNSFNKGK [_DTPTSAGPNSFNK(Formyl)GK_]
collision cross section [20]: 404 ± 0.2 Å²

IPQEKCILQTDVK [_IPQEK(Methyl (K))CILQTDVK_]
collision cross section [14]: 433.64 ± 1.1 Å² | collision cross section [15]: 464.28 ± 2.7 Å²

ASAISIKLGSSK [_ASAISIK(Gluratylation)LGSSK_]
collision cross section [21]: 376.68 ± 0.1 Å²

GGPGSTLSFVGKR [_GGPGSTLSFVGK(GlyGly (K))R_]
collision cross section [10]: 403.34 ± 0.36 Å² | collision cross section [11]: 451.29 ± 1.3 Å²

TTGFYSGFSEVAEKR [_TTGFYSGFSEVAEK(hydroxyisobutyryl)R_]
collision cross section [22]: 444.06 ± 0.8 Å² | collision cross section [23]: 515.51 ± 0.49 Å²

LTSLNVKYNNDK [_LTSLNVK(Dimethyl (K))YNNDK_]
collision cross section (charge state: 2, modification: Dimethyl (K)): 409.23 ± 0.76 Å² | collision cross section [24]: 464.81 ± 1.6 Å²

SPSDSGYSYETIGKTTK [_SPSDSGYSYETIGK(Trimethyl (K))TTK_]
collision cross section [8]: 455.09 ± 0.58 Å² | collision cross section [9]: 517.28 ± 2.4 Å²

GSLGAQKLANTCFNEIEK [_GSLGAQK(Butyryl)LANTCFNEIEK_]
collision cross section [19]: 475.25 ± 0.74 Å²

VGIDTPDIDIHGPEGKLK [_VGIDTPDIDIHGPEGK(Dimethyl (K))LK_]
collision cross section [24]: 537.38 ± 0.61 Å²

VETFSGVYK [_VETFSGVY(Phospho (Y))K_]
collision cross section [18]: 345.95 ± 0.75 Å²

VGLQVVAVKAPGFGDNR [_VGLQVVAVK(Trimethyl (K))APGFGDNR_]
collision cross section [8]: 473 Å² | collision cross section [9]: 497.24 ± 1.6 Å²

PATSYVR [_PATSY(Nitro (Y))VR_]
collision cross section [7]: 318.95 ± 2.2 Å²

RGPPGAK [_RGPP(Hydroxyproline)GAK_]
collision cross section [6]: 303.1 ± 0.0067 Å²

GDRGEIGPPGPR [_GDRGEIGPP(Hydroxyproline)GPR_]
collision cross section [6]: 368.56 ± 1.9 Å² | collision cross section (charge state: 3, modification: Hydroxyproline): 424.63 ± 1.2 Å²

VPTTEKPTVTVNFR [_VPTTEK(GlyGly (K))PTVTVNFR_]
collision cross section [10]: 431.31 ± 0.85 Å² | collision cross section [11]: 523.98 ± 3.9 Å²

GEVGAGAGPGAQAGPSAKR [_GEVGAGAGPGAQAGPSAK(Methyl (K))R_]
collision cross section [14]: 422.57 ± 1.8 Å² | collision cross section [15]: 489.3 ± 3.6 Å²

AGPNASIISLKSDK [_AGPNASIISLK(Formyl)SDK_]
collision cross section [20]: 404.66 ± 0.43 Å²

VGVEVPDVNIEGPEGKLK [_VGVEVPDVNIEGPEGK(Malonyl)LK_]
collision cross section (charge state: 2, modification: Malonyl): 458.25 ± 0.64 Å²

YEEIVKEVSTYIK [_YEEIVK(Acetyl (K))EVSTYIK_]
collision cross section [16]: 431.89 ± 3.1 Å²

VPTTEKPTVTVNFR [_VPTTEK(Trimethyl (K))PTVTVNFR_]
collision cross section [9]: 499.21 ± 1.6 Å²

GRGYFEHR [_GR(Citrullination (R))GYFEHR_]
collision cross section [12]: 339.49 ± 1.6 Å² | collision cross section [13]: 411.67 ± 1.3 Å²

STGLELETPSLVPVKK [_STGLELETPSLVPVK(hydroxyisobutyryl)K_]
collision cross section [22]: 440.07 ± 0.82 Å² | collision cross section [23]: 511.71 ± 25 Å²

AIEINPDSAQPYK [_AIEINPDSAQPY(Nitro (Y))K_]
collision cross section [7]: 401.15 ± 0.18 Å²

GEVGAGAGPGAQAGPSAKR [_GEVGAGAGPGAQAGPSAK(GlyGly (K))R_]
collision cross section [10]: 426.91 ± 0.84 Å² | collision cross section [11]: 469.61 ± 1.1 Å²

INNFSADIKDSK [_INNFSADIK(Methyl (K))DSK_]
collision cross section [14]: 401.35 ± 2.2 Å² | collision cross section [15]: 451.47 ± 4.8 Å²

TQAYQDQKPGTSGLR [_TQAYQDQK(Succinyl)PGTSGLR_]
collision cross section [5]: 434.09 ± 1.1 Å² | collision cross section [25]: 483.43 ± 3.9 Å²

ANEKTESSSAQQVAVSR [_ANEK(Succinyl)TESSSAQQVAVSR_]
collision cross section [5]: 443.48 ± 0.35 Å² | collision cross section [25]: 533.43 ± 0.35 Å²

TFGKAAGPSLSHTSGGTQSK [_TFGK(Succinyl)AAGPSLSHTSGGTQSK_]
collision cross section [5]: 476.24 Å² | collision cross section [25]: 513.01 ± 0.73 Å²

ANEKTESSSAQQVAVSR [_ANEK(Formyl)TESSSAQQVAVSR_]
collision cross section [20]: 431.82 ± 1.4 Å² | collision cross section (charge state: 3, modification: Formyl): 523.66 ± 4.2 Å²

SPDEAYAIAKK [_SPDEAYAIAK(Crotonyl)K_]
collision cross section [26]: 376.34 ± 0.8 Å² | collision cross section (charge state: 3, modification: Crotonyl): 442.81 ± 1.6 Å²

ASNAAVKLAESK [_ASNAAVK(Biotin)LAESK_]
collision cross section (charge state: 2, modification: Biotin): 402.96 ± 11 Å² | collision cross section (charge state: 3, modification: Biotin): 464.87 Å²

GDIGETGVPGAEGPR [_GDIGETGVPGAEGP(Hydroxyproline)R_]
collision cross section [6]: 384.38 ± 0.27 Å²

FLQEFYQDDELGKK [_FLQEFYQDDELGK(Crotonyl)K_]
collision cross section [26]: 450.33 ± 0.0083 Å²

TQAEGQGQGRGLGLVSAVR [_TQAEGQGQGR(Methyl (R))GLGLVSAVR_]
collision cross section [2]: 510.91 ± 2 Å²

SLGEPAAGEGSAKR [_SLGEPAAGEGSAK(Gluratylation)R_]
collision cross section [21]: 384.54 ± 0.66 Å² | collision cross section (charge state: 3, modification: Glutarylation): 479.54 ± 1 Å²

GETASKLQSEISR [_GETASK(Propionyl)LQSEISR_]
collision cross section [3]: 387.23 ± 0.65 Å²

ASEALLKQLK [_ASEALLK(GlyGly (K))QLK_]
collision cross section [10]: 378.14 ± 0.54 Å² | collision cross section [11]: 443.25 ± 0.74 Å²
